Test results from patent CN115368448A (HEFEI TIANGANG IMMUNOLOGY PHARMACEUTICAL CO LTD, dated 2022).

Experiments:
[1] = target: T1, CD27 on human peripheral blood CD8+ T cells (human, UniProt P26842 20-260); experiment: flow cytometry on human PBMC gated on CD8+ T cells, Alexa-647 anti-human Fc secondary
T1 construct: whole, on cells; also called 人外周血T细胞; 人外周血CD8+ T细胞
T1 sequence (looked up): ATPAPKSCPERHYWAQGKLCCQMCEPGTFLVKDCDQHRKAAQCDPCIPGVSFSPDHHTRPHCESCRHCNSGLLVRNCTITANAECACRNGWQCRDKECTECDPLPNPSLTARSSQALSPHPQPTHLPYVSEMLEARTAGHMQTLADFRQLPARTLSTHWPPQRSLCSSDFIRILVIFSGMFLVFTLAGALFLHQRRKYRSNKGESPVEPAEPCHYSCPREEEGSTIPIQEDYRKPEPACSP

[2] = target: T2, CD27蛋白 (SEQ ID NO:27), expressed on transduced cells (Homo sapiens (Human), UniProt P26842 20-260); experiment: flow cytometry on CHO-K1-CD27 cells, Alexa-647 anti-human Fc secondary
T2 construct: The entry includes the signal peptide; also called CHO-K1-CD27细胞; Jurkat-NFAT-lucia-CD27细胞
T2 sequence: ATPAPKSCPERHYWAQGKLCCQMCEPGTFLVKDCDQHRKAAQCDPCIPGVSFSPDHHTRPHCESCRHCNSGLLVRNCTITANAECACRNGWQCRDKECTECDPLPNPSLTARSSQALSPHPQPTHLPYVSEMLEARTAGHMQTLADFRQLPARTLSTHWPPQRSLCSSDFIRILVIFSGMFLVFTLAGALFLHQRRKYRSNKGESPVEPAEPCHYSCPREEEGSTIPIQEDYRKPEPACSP

[3] = target: T3, CD33蛋白 (SEQ ID NO:29), expressed on transduced cells (Homo sapiens (Human), UniProt P20138 18-364); experiment: flow cytometry on CHO-K1-CD33 cells, Alexa-647 anti-human Fc secondary
T3 construct: The entry includes the signal peptide; also called CHO-K1-CD33细胞; A375-CD33细胞

[4] = target: T4, CD33 on human acute myeloid leukaemia HL-60 tumour cells (human, UniProt P20138 18-364); experiment: flow cytometry on HL-60 cells, Alexa-647 anti-human Fc secondary
T4 construct: whole, on cells; also called 人急性髓系细胞白血病HL-60肿瘤细胞; HL-60细胞
T4 sequence (P20138 18-364): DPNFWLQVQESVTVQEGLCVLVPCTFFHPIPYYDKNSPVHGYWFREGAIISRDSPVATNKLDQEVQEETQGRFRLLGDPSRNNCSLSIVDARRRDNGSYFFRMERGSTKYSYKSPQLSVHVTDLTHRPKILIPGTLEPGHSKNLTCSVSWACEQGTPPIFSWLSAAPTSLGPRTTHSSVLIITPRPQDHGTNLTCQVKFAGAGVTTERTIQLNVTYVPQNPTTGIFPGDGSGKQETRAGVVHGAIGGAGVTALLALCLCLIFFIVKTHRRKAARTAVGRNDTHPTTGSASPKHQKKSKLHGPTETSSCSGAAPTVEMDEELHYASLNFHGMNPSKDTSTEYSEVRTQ

T3 sequence (P20138 18-364 limits assumed): as the sequence (P20138 18-364) above

binding result [1]: binds
binding result [2]: binds
binding result [3]: binds
binding result [4]: binds
B1: CD27×CD33双特异抗体 (bispecific antibody, human IgG1, kappa, L234A L235A)
chain: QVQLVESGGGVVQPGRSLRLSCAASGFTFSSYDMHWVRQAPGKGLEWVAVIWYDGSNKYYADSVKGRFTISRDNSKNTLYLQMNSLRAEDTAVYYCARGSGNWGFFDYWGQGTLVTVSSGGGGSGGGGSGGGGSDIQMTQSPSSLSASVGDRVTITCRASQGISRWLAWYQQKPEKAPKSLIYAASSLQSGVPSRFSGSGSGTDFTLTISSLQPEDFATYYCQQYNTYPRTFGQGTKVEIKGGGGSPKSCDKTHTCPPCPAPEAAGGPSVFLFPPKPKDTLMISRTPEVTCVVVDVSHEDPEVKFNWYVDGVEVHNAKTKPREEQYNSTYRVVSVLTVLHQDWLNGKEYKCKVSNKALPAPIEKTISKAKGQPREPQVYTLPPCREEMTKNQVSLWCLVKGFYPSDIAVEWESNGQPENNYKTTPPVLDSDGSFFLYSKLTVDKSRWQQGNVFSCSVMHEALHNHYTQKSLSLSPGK
heavy: EVQLVQSGAEVKKPGSSVKVSCKASGYTITDSNIHWVRQAPGQSLEWIGYIYPYNGGTDYNQKFKNRATLTVDNPTNTAYMELSSLRSEDTAFYYCVNGNPWLAYWGQGTLVTVSSASTKGPSVFPLAPSSKSTSGGTAALGCLVKDYFPEPVTVSWNSGALTSGVHTFPAVLQSSGLYSLSSVVTVPSSSLGTQTYICNVNHKPSNTKVDKKVEPKSCDKTHTCPPCPAPEAAGGPSVFLFPPKPKDTLMISRTPEVTCVVVDVSHEDPEVKFNWYVDGVEVHNAKTKPREEQYNSTYRVVSVLTVLHQDWLNGKEYKCKVSNKALPAPIEKTISKAKGQPREPQVCTLPPSREEMTKNQVSLSCAVKGFYPSDIAVEWESNGQPENNYKTTPPVLDSDGSFFLVSKLTVDKSRWQQGNVFSCSVMHEALHNHYTQKSLSLSPGK
light: DIQLTQSPSTLSASVGDRVTITCRASESLDNYGIRFLTWFQQKPGKAPKLLMYAASNQGSGVPSRFSGSGSGTEFTLTISSLQPDDFATYYCQQTKEVPWSFGQGTKVEVKRTVAAPSVFIFPPSDEQLKSGTASVVCLLNNFYPREAKVQWKVDNALQSGNSQESVTEQDSKDSTYSLSSTLTLSKADYEKHKVYACEVTHQGLSSPVTKSFNRGEC
notes: Three-chain knob-into-hole heterodimer (scFv-Fc knob arm against CD27, Fab-Fc hole arm against CD33), human IgG1 L234A/L235A constant regions; made in ExpiCHO cells, purified on Protein A; also called 抗体CD27×CD33; 双特异抗体CD27×CD33
